# Test results: paper PMC7703929, “Unraveling the mechanism of recognition of the 3’ splice site of the adenovirus major late promoter intron by the alternative splicing factor PUF60”
# Experiments:
# [1] = biological target: T1, SF1 1-260 (human, UniProt Q15637 1-260, C171A); assay: EMSA; SF1 up to 40 uM, RNA 5 uM; FA: 50 mM Tris-HCl, 150 mM NaCl, 20 uM EDTA, pH 8.0, room temperature, 10 nM probe; EMSA: same buffer, 5 uM RNA, 5.5% native gel in 0.5X TBE at 4 C; crystals: 0.1 M Tris-HCl pH 8.7, 25% PEG 4000, 5-10 mM BaCl2, 20 C; conditions: protein: recombinant; tags: His tag removed by TEV; N-terminal G left
# T1 sequence: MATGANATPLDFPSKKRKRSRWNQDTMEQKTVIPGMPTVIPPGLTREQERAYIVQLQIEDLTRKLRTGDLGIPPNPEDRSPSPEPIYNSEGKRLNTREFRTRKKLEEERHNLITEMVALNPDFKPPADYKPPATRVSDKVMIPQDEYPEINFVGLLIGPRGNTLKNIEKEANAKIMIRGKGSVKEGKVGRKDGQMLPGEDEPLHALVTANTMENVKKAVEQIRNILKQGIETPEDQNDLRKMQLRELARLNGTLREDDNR
# [2] = biological target: T2, PUF60 RRMs+UHM (human, UniProt Q9UHX1 118-559, C129S;C255A;C487A); assay: EMSA; two conformations at 20 uM PUF60; RNA 5 uM; FA: 50 mM Tris-HCl, 150 mM NaCl, 20 uM EDTA, pH 8.0, room temperature, 10 nM probe; EMSA: same buffer, 5 uM RNA, 5.5% native gel in 0.5X TBE at 4 C; crystals: 0.1 M Tris-HCl pH 8.7, 25% PEG 4000, 5-10 mM BaCl2, 20 C; conditions: protein: recombinant; tags: His tag removed by TEV; N-terminal GRGS left; chain copies: 2
# [3] = biological target: PUF60 RRMs+UHM;SF1 1-260 (human;human, UniProt Q9UHX1;Q15637 118-559;1-260, C129S;C255A;C487A|C171A); assay: EMSA; further upward shift with both proteins, suggests ternary complex; FA: 50 mM Tris-HCl, 150 mM NaCl, 20 uM EDTA, pH 8.0, room temperature, 10 nM probe; EMSA: same buffer, 5 uM RNA, 5.5% native gel in 0.5X TBE at 4 C; crystals: 0.1 M Tris-HCl pH 8.7, 25% PEG 4000, 5-10 mM BaCl2, 20 C; conditions: protein: recombinant;recombinant; tags: His tag removed by TEV; N-terminal GRGS left;His tag removed by TEV; N-terminal G left; chain copies: 2;1
# [4] = biological target: PUF60 RRMs (human, UniProt Q9UHX1 118-316, C129S;C255A); assay: fluorescence anisotropy; Kd1, two-site sequential model; FA: 50 mM Tris-HCl, 150 mM NaCl, 20 uM EDTA, pH 8.0, room temperature, 10 nM probe; EMSA: same buffer, 5 uM RNA, 5.5% native gel in 0.5X TBE at 4 C; crystals: 0.1 M Tris-HCl pH 8.7, 25% PEG 4000, 5-10 mM BaCl2, 20 C; conditions: protein: recombinant; tags: His tag removed by TEV; chain copies: 2; label: 5'-fluorescein
# [5] = biological target: T2, PUF60 RRMs+UHM; assay: as above; conditions: protein: recombinant; tags: His tag removed by TEV; N-terminal GRGS left; chain copies: 2; label: 5'-fluorescein
# T2 sequence (Q9UHX1 118-559 C129S/C255A/C487A): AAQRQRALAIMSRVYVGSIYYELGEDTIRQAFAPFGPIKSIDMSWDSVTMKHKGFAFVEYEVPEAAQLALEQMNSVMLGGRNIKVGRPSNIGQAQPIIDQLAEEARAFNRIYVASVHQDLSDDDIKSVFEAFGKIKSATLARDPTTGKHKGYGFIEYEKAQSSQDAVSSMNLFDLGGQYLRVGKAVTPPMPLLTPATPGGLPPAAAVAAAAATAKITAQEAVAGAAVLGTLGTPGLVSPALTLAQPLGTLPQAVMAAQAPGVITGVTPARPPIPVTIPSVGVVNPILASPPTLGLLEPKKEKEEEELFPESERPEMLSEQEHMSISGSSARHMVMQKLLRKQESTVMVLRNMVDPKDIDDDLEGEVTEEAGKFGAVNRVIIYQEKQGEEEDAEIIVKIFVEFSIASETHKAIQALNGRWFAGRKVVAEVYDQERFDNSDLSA
# PUF60 RRMs, sequence (Q9UHX1 118-316 C129S/C255A): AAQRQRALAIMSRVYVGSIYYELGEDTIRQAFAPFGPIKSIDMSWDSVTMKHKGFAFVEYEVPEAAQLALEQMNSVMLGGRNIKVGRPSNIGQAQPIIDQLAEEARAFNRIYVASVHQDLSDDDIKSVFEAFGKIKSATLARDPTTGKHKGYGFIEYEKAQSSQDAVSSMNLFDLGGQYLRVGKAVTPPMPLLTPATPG
# PUF60 RRMs+UHM;SF1 1-260, sequence (Q9UHX1 118-559 C129S/C255A/C487A, one chain of several): as the sequence (Q9UHX1 118-559 C129S/C255A/C487A) above
Binder,binding result [1],binding result [2],binding result [3],Kd [4] [µM],Kd [5] [µM]
GAUGUCAUACUUAUCCUGUCCCUUUUUUUU (ssRNA) [AdML3' RNA],binds,binds,binds,–,–
"GAUGUCAUACUUAUCCUGUCCCUUUUUUUU (ssDNA, deoxyribose backbone with A, U, C, G bases (dU)) [*AdML3']",–,–,–,3.64 ± 3.6,4.61 ± 1.19
